Biological target: VanX^C78/157S
Assay: SEC

VanX^C78/157S (enzyme)
stoichiometry N: 2
